The values that follow come from US20150274826A1 (published 2015).

The target in assay [1] is human CD47 (human, UniProt Q08722 19-323). The assay can be described thus: FACS binding; human RBCs. In general terms: Flow cytometry measures light scatter and fluorescence of single cells or particles in a stream.
The target of assay [2] is T1, mouse CD47 (mouse, UniProt Q61735 19-303).
T1 chain: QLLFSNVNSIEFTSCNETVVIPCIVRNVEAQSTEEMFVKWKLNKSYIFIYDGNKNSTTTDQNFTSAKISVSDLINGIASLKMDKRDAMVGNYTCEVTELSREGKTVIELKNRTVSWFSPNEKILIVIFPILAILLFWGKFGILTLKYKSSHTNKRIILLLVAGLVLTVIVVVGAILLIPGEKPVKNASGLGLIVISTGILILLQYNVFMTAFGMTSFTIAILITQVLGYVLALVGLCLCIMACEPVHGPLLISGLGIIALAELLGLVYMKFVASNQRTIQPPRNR
The assay can be described thus: FACS binding; mouse RBCs.

Assay [3] concerns the target T2, rat CD47 (rat, UniProt P97829 19-303).
T2 chain: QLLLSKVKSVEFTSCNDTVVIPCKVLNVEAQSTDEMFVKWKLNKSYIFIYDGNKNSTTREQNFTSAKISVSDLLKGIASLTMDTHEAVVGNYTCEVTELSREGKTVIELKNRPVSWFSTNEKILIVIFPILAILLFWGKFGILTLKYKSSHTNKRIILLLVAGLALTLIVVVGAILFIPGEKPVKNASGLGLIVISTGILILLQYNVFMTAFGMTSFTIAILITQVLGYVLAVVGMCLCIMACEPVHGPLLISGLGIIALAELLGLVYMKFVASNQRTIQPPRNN
The assay can be described thus: FACS binding; rat RBCs.

Assay [4] concerns the target T3, pig CD47 (pig, UniProt Q9GKE8 19-303).
T3 chain: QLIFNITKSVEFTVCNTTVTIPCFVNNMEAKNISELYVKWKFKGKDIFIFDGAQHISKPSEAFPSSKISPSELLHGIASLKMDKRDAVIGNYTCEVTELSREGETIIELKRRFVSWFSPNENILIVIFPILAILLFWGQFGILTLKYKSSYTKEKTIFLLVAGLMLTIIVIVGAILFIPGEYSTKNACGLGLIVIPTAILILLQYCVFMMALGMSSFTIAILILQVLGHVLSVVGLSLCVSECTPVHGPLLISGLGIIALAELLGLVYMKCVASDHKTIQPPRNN
The assay can be described thus: FACS binding; porcine RBCs.

Chain of human CD47 (Q08722 19-323): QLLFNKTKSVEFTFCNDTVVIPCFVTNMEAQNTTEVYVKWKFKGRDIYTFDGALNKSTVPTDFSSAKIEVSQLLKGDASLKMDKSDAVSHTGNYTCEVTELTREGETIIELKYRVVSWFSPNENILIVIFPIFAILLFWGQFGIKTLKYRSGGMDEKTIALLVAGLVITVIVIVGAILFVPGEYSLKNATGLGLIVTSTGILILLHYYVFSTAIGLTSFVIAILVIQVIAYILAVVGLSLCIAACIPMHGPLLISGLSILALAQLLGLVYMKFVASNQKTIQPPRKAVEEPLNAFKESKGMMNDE

B1: Clone 1.1 (hum01 IgG1 N297Q) (antibody)
heavy: QVQLQESGPGLVKPSQTLSLTCTVSGYTFTNYYVFWVRQARGQRLEWIGDINPVNGDTNFNEKFKNRVTISADKSISTAYLQWSSLKASDTAMYYCARGGYTMDYWGQGTLVTVSSASTKGPSVFPLAPSSKSTSGGTAALGCLVKDYFPEPVTVSWNSGALTSGVHTFPAVLQSSGLYSLSSVVTVPSSSLGTQTYICNVNHKPSNTKVDKKVEPKSCDKTHTCPPCPAPELLGGPSVFLFPPKPKDTLMISRTPEVTCVVVDVSHEDPEVKFNWYVDGVEVHNAKTKPREEQYQSTYRVVSVLTVLHQDWLNGKEYKCKVSNKALPAPIEKTISKAKGQPREPQVYTLPPSR
light: DIVMTQTPLSLPVTPGEPASISCRSSQSLVHSNGNTYLHWYQQKPGKAPKLLIYKVSYRFSGVPDRFSGSGSGTDFTLKISRVEAEDVGVYYCSQNTHVPRTFGQGTKVEIKRTVAAPSVFIFPPSDEQLKSGTASVVCLLNNFYPREAKVQWKVDNALQSGNSQESVTEQDSKDSTYSLSSTLTLSKADYEKHKVYACEVTHQGLSSPVTKSFNRGEC
For B1, the EC50 (commonly the concentration that produces a half-maximal response) worked out at 0.216 µg/mL in assay [1], 0.265 µg/mL in assay [2], 0.258 µg/mL in assay [3] and 0.0309 µg/mL in assay [4].

B2: Clone 13 (pVxK7b-037-hum13-LC / pVxK7b-037-hum13-HC) (antibody)
heavy: not shown
light: DIVMTQTPLSLPVTPGEPASISCRSSQSLVHSNGNTYLHWYQQKPGKAPKLLIYKVSYRFSGVPDRFSGSGSGTDFTLKISRVEAEDVGVYYCSQNTHVPRTFGQGTKVEIKRTVAAPSVFIFPPSDEQLKSGTASVVCLLNNFYPREAKVQWKVDNALQSGNSQESVTEQDSKDSTYSLSSTLTLSKADYEKHKVYACEVTHQGLSSPVTKSFNRGEC
With B2, the EC50 in assay [1] was determined as 0.12 µg/mL; in assay [2], 0.0418 µg/mL; in assay [3] it was 0.0461 µg/mL; in assay [4] it was 0.0152 µg/mL.

B3: Clone 13.1 (hum13 IgG1 N297Q) (antibody)
heavy: EVQLVQSGAEVKKPGESLRISCKGSGYTFTNYYVFWIRQSPSRGLEWLGDINPVNGDTNFNEKFKNRVTITADKSTSTAYMELSSLRSEDTAVYYCARGGYTMDYWGQGTLVTVSSASTKGPSVFPLAPSSKSTSGGTAALGCLVKDYFPEPVTVSWNSGALTSGVHTFPAVLQSSGLYSLSSVVTVPSSSLGTQTYICNVNHKPSNTKVDKKVEPKSCDKTHTCPPCPAPELLGGPSVFLFPPKPKDTLMISRTPEVTCVVVDVSHEDPEVKFNWYVDGVEVHNAKTKPREEQYQSTYRVVSVLTVLHQDWLNGKEYKCKVSNKALPAPIEKTISKAKGQPREPQVYTLPPSR
light: DIVMTQTPLSLPVTPGEPASISCRSSQSLVHSNGNTYLHWYQQKPGKAPKLLIYKVSYRFSGVPDRFSGSGSGTDFTLKISRVEAEDVGVYYCSQNTHVPRTFGQGTKVEIKRTVAAPSVFIFPPSDEQLKSGTASVVCLLNNFYPREAKVQWKVDNALQSGNSQESVTEQDSKDSTYSLSSTLTLSKADYEKHKVYACEVTHQGLSSPVTKSFNRGEC
B3: the EC50 in assay [1] is 0.163 µg/mL; in assay [2], 0.0673 µg/mL; in assay [3] it was 0.0835 µg/mL; in assay [4], 0.031 µg/mL.

B4: Clone 1 (pVxK7b-037-hum01-LC / pVxK7b-037-hum01-HC) (antibody)
heavy: not shown
light: DIVMTQTPLSLPVTPGEPASISCRSSQSLVHSNGNTYLHWYQQKPGKAPKLLIYKVSYRFSGVPDRFSGSGSGTDFTLKISRVEAEDVGVYYCSQNTHVPRTFGQGTKVEIKRTVAAPSVFIFPPSDEQLKSGTASVVCLLNNFYPREAKVQWKVDNALQSGNSQESVTEQDSKDSTYSLSSTLTLSKADYEKHKVYACEVTHQGLSSPVTKSFNRGEC
For B4, the EC50 in assay [1] was determined as 0.184 µg/mL; in assay [2], 0.0657 µg/mL; in assay [3] it was 0.0479 µg/mL; in assay [4], 0.014 µg/mL.
